Data from patent US20020164690A1.

B1: Rat CNTF (ligand, UniProt P20294 1-200, looked up)
chain: MAFAEQTPLTLHRRDLCSRSIWLARKIRSDLTALMESYVKHQGLNKNINLDSVDGVPVASTDRWSEMTEAERLQENLQAYRTFQGMLTKLLEDQRVHFTPTEGDFHQAIHTLMLQVSAFAYQLEELMVLLEQKIPENEADGMPATVGDGGLFEKKLWGLKVLQELSQWTVRSIHDLRVISSHQMGISALESHYGAKDKQM
B2: anti-IL-6 monoclonal neutralizing antibody B-E8 (antibody, from another filing, V domains shown)
VH: QVTLKESGPGILKPSQTLSLTCSFSGFSLSTSGMGVGWIRQPSGKGLEWLAHIWWDDDKYYNPSLKSQLTISKDTSRNQVFLKITSVDTADTATYYCARSYDDYLYYALDYWGQGTSVTVSS
VL: DIVMTQSPATLSVTPGDRVSLSCRASQSISDYLHWYQQKSHESPRLLIKSVSQSISGIPSRFSGSGSGSDFTLSINSVEPEDVGVYYCQNGHSFPLTFGAGTKLELK

Legend:
gp130 on PC12D cells = molecular target: T1, gp130 on PC12D cells (UniProt P40190); assay: cell-based or functional assay
T1 sequence (looked up): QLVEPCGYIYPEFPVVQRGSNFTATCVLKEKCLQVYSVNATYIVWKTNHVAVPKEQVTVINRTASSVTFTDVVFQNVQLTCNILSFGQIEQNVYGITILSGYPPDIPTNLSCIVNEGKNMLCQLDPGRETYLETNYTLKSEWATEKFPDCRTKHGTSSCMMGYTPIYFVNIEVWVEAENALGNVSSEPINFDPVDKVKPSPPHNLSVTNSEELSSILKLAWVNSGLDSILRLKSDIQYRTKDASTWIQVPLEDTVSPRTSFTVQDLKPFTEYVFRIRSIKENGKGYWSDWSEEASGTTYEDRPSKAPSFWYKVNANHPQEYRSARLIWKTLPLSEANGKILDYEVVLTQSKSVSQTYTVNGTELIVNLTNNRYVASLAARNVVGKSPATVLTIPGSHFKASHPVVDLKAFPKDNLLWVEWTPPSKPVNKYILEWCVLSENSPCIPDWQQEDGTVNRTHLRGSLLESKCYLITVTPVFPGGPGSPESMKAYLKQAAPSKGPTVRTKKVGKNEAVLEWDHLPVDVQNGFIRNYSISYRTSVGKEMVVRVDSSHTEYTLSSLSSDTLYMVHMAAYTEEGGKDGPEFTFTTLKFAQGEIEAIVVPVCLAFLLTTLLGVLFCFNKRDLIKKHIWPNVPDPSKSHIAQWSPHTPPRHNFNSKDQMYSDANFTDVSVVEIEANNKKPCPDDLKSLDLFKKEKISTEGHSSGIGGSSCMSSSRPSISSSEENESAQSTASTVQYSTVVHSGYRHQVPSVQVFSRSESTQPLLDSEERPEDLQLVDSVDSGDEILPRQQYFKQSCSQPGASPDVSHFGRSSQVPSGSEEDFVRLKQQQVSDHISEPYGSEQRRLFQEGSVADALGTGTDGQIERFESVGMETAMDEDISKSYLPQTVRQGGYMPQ

[1] = molecular target: recombinant human IL-6 (human) (UniProt P05231); assay: cell-based or functional assay
human 125I-IL6 (human) = human 125I-IL6 (human) (UniProt P05231); assay: dissociation: 20 pM 125I-IL-6 preincubated with 500 pM antibody for 20 hours, chased with 20 nM cold IL-6, precipitation with Protein G-Sepharose
human 125I-IL6 (human), sequence (P05231 30-212 limits assumed): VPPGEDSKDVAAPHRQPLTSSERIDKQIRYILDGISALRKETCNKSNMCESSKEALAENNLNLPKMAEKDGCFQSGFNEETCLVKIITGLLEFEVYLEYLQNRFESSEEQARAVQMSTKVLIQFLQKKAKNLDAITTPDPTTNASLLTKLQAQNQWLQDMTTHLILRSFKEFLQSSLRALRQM

recombinant human IL-6 (human), sequence (P05231 30-212 limits assumed): as above

Binder | tyrosine phosphorylation of gp130 in PC12D cells in response to IL-6 (gp130 on PC12D cells) [nM] | tyrosine phosphorylation of gp130 in PC12D cells in response to IL-6 and sIL-6Rα (gp130 on PC12D cells) [nM] | IL-6-dependent proliferation of XG-1 cells (50 pg/ml IL-6): molar excess that blocks completely (fold molar excess over IL-6) [1] | percent of the counts still associated after three days (human 125I-IL6 (human)) [%]
B1 | 2 | 8 |  | 
B2 |  |  | 10 | < 5
